Data reported in patent publication US20170073382.

Biological target: synthetic TAL effector (RVG-LAMP-2B-NLS-TALE) (Artificial Sequence) (UniProt P14727)
Assay: cell_activity

“gfaABC1D-NeuroD1 plasmid without TAL effector binding site” gave a binding signal of 1 fold.
